Target: vascular endothelial growth factor (VEGF) (human) (UniProt P15692)
Assay: cell-based or functional assay

UniProt P15692, sequence (P15692 other isoform, or with tags, fused parts or gaps limits assumed): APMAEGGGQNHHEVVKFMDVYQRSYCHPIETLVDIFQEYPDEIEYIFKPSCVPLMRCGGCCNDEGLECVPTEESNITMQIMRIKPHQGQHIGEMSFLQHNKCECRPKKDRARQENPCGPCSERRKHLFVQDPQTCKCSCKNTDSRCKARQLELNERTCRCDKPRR

In the case of KH903 (Fc fusion), the viability of HUVECs 72 h after infection with 30 MOI dE1-k35/KH903 (MTT assay), decrease against non-treated group is reported as 53%.
